“And” between values parts separate entries of the source, which are not always exact repeats. Equal entries are not always repeated. Where no end group is shown, it is not given here. The star is where a group is joined. 125I = [125I]*
Assays:
[1] = molecular target: UAG binding sites on human CAC (circulating angiogenic cell) membranes (human); experiment: radioligand binding to frozen-thawed CAC membranes, two cell preparations
[2] = molecular target: UAG binding sites on human CAC (circulating angiogenic cell) membranes (human); experiment: saturation radioligand binding on CAC membranes
[3] = molecular target: UAG binding sites on human CAC (circulating angiogenic cell) membranes (human); experiment: radioligand binding to fresh CAC membranes, two cell preparations
[4] = molecular target: UAG binding sites on human CAC (circulating angiogenic cell) membranes (human); experiment: radioligand binding to CAC membranes; binding without minus binding with 100 nM unlabelled UAG
[5] = molecular target: UAG binding sites on human CAC (circulating angiogenic cell) membranes (human); experiment: saturation radioligand binding on CAC membranes, Scatchard analysis

specific binding, frozen-thawed CAC membranes [1]: 0.2 fmol and 0.33 fmol
radioligand concentration at maximal specific binding [2]: 2 nM
specific binding, fresh CAC membranes [3]: 0.25 fmol and 0.26 fmol
specific binding, percent of control value [4]: 75%
Bmax (fmol/mg membrane protein) [5]: 10.7
Kd [5]: 0.48 nM
B1: [125I-Tyr4]-UAG (peptide)
peptide: GSSY(125I)LSPEHQRVQQRKESKKPPAKLQPR

— patent US20100016226A1
